This series can be described thus: yeast display, Sf9 membrane polyspecificity reagent, FACS + sequencing; frameworks hold sequencing errors. The method, boiled down: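 After 36–48 hours of galactose induction, yeast (Saccharomyces cerevisiae BJ5465) displaying a synthetic nanobody library were stained at 4 °C for 1 hour with 10% biotinylated, detergent-solubilized Sf9 membrane reagent. Streptavidin microbeads enriched the stained cells before FACS sorting into low and high (top ~1%) gates on anti-HA and streptavidin fluorescence. Each clone's polyreactivity label reflects its gate of origin.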
Turning to “QVQLVESGGGLVQAGGSLRLSCAASGRTFLRYAMGWYRQAPGKERELVAAISGSGGSTYYADSVKGRFTISRDNAKNTVYLQMNSLKPEDTAVYYCATRFWVSFKAREYWGQGTQVTVSS”, the “polyreactivity (PSR sort gate)” value was “high polyreactivity”.
Turning to “QVQLVESGGGLVQAGGSLRLSCAASGRTFLSYAMGWSRQAPVTERELVATITRRGGSTYYADSVKGRFTISRDNAKNTVYLQMNSLKPEDTAVSYCAAYYRQYSYSEFGYWGQGTQVTVSS”, the “polyreactivity (PSR sort gate)” value is recorded as “high polyreactivity”.
Then “QVQLVESGGGLVQAGGSLRLSCAASGRTFLSYMGWYRQAPGKERELVAISRYGTSTYYADSVKGRFTISRDNAKNTVYLQMNSLKPEDTAVFYCAAEVLRDGWWGYYYWGQGTQVTVSS”, with “high polyreactivity”; and “QVQLVESGGGLVQAGGSLRLSCAASGRTFLTNAMGWYRQAPGKERELVAAITSSGGNTYYADSVKGRFTISRDNAKNTVYLQMNSLKPEDTAVYYCAAPGYVWYGGRWVYRYYYWGQGTQVTVSS”, with “high polyreactivity”.
Then “QVQLVESGGGLVQAGGSLRLSCAASGRTFLTNTMGWYRQAPGKERELVAAISSGGSTKYADSVKGRFTISRDNAKNTVYLQMNSLKPEDTAVYYCAATGWRYGYKYYYWGQGTQVNVSS”, with “high polyreactivity”; and “QVQLVESGGGLVQAGGSLRLSCAASGRTFLVFAMGWYRQAPGKERELVAAITRDDNTNYADSVKGRFTISRDNAKNTVYLQMNSLKPEDTAVDYCAADALVYRLGNYYFIFDYWGQGTEVTVSS”, with “low polyreactivity”; and “QVQLVESGGGLVQAGGSLRLSCAASGRTFLVNAMGWYRQAPGKEREFVAAITSRSSGSTYYADSVTGRFTISRDKAKNTVYFQLNSQKPEDTAVYYCAARGHLRYESDYWGQGTQVTVSS”, with “high polyreactivity”.
Then “QVQLVESGGGLVQAGGSLRLSCAASGRTFLVNAMGWYRQAPGKERELVAAITANGGNTYYADSVKGRFTISRDNAKNTVYLQMNSLKPEDTAVYYCAKLSHRGQSTGVDYWGQGTQVTVSS”, with “low polyreactivity”; and “QVQLVESGGGLVQAGGSLRLSCAASGRTFLVYAMGWYRQAPGKERDLVAAITGSGTSTYYADSVKRRFTISRDNGKNTVYLQMNSLKAEDTAVYYCAAEVRLGTYGYDYDYWGQGTQVTVSS”, with “high polyreactivity”.
As for “QVQLVESGGGLVQAGGSLRLSCAASGRTFLVYAMGWYRQAPGKERELVAAISFSDGITYYADSVKGRFTISRDNAKNTVYIQMNSLKPEDTAVYYCATEILDYYYGSEYDYWGQGTQVTVSS”, the “polyreactivity (PSR sort gate)” value is given as “high polyreactivity”.
The value for “QVQLVESGGGLVQAGGSLRLSCAASGRTFLWYAMGWYRQAPGKEREFVAAITKSSGSTYYADSVKGRFTISRDNAKNTVFLQMNSLKPEDNAVYYCAKRPFSTRYDYWGQVTQVTVSS” was “high polyreactivity”; that for “QVQLVESGGGLVQAGGSLRLSCAASGRTFLYNAMGWYRQAPGKERELVAAISWNGGSTYYADSVKGRFTISRDNAKNTVYLQMNSLKPEDTAVYYCNAVYRPRVGRRFPTGYDYWGQGTQVTVSS” was “high polyreactivity”.
Take “QVQLVESGGGLVQAGGSLRLSCAASGRTFNAYAMGWYRHAPGKERELVAAISSGGSTYYADSVKGRFTISRDNAKNTVYLLMNSLKPEDTAVYYCNKVYGWRQFDYWGQGTQVTVSS”: the “polyreactivity (PSR sort gate)” value was “high polyreactivity”.
On to “QVQLVESGGGLVQAGGSLRLSCAASGRTFNAYTLGWYTQAPGTERELVAAITSSGGNTYNADSVKGRFTISRDNAKNTVYLQMNSLKPEETAVYYCNTVYLYGTHDYWGQGTQVTVSS”, for which the “polyreactivity (PSR sort gate)” value is reported as “low polyreactivity”.
For “QVQLVESGGGLVQAGGSLRLSCAASGRTFNAYTMGWYRQAPGKERELVAAITRSGARTYYADSVKGRFTISRDNAKNTVYLQMNSLKPEDTAVYYCNKAAFNYYLYGYWGQGTQVTVSS”, the “polyreactivity (PSR sort gate)” value is “high polyreactivity”.
The value for “QVQLVESGGGLVQAGGSLRLSCAASGRTFNEYAMGWYRQAPGKERELVAAISSSGDSTYYADSVKGRFTISRDNAKNTVYLQMNSLKPEDTAVYYCAAQVVVWYPYVYFPGYDYWGQGTQVTVSS” was “low polyreactivity”; that for “QVQLVESGGGLVQAGGSLRLSCAASGRTFNFNTMGWYRQSPGKERELVASITSGGSTNYADSVKGRFTISRDNAKNTVYIQMNILKPEDTAVYYFAVTVSGPYAYDYWGQGTQVTVSS” was “low polyreactivity”.
Then “QVQLVESGGGLVQAGGSLRLSCAASGRTFNGNAMGWYRQAPGKERELVAAISWSGGSTYYADSVKGRFTISRDNAKNTVYLQMNSLKPEDTAVYYCNADYFAWDLMYYWGQGTQVTVSS”, with “low polyreactivity”; and “QVQLVESGGGLVQAGGSLRLSCAASGRTFNGYAMGWSRQAPGKERELVAALTGSVGSTYYADSVKGRFTISRDNAKNPGELQLNSLKPDDTAVYYCATRWKATRARYDYWGQGTQVTVTS”, with “high polyreactivity”; and “QVQLVESGGGLVQAGGSLRLSCAASGRTFNGYAMGWYRQAPGKEREFVAAITSRGGSTYYADSVKGRFTISRDNAKNTVYLQMNSLKPEDTAVYYCAARAYTALSWRRYGYWGQGTQVTVSS”, with “high polyreactivity”.
Turning to “QVQLVESGGGLVQAGGSLRLSCAASGRTFNHYAMGWYRQAPGKERELVPGITISGGSTYYADSVKGRFTISRDNAKNTVYLQMNSLKPEDTAVYYCNAVYDYYRQSNWTMDYWGQGTQVTVSS”, the “polyreactivity (PSR sort gate)” value was “low polyreactivity”.
On to “QVQLVESGGGLVQAGGSLRLSCAASGRTFNKYAMGWYRQAPGKERELVAAINTSGGSTYYADSVKGRFTISRDNAKNTVYLQMNSLKPEDTAVYYCAAQSRSVYGRSYGYWGQGTQVTVSS”, for which the “polyreactivity (PSR sort gate)” value was “high polyreactivity”.
Then “QVQLVESGGGLVQAGGSLRLSCAASGRTFNLNAMGWYRQAPGKEREFVAAISNSGVRTYYADSVKGRFTISRDNAKNTVYLQMNSLKPVDTAVYYCARTYQVGDSIDDYWGQGTQVTVSS”, with “low polyreactivity”; and “QVQLVESGGGLVQAGGSLRLSCAASGRTFNLYAMGWSRQAPGKERELVARITSGGSTNYADSEKGRFTISRDNAKNTVYLQMNSLKPEDTAVYYCAASSYNRGDYWGQGTQVTVSS”, with “high polyreactivity”.
Then “QVQLVESGGGLVQAGGSLRLSCAASGRTFNPNAMGWYRQAPGKERELVATISWSSDSTYYADSVKGRFTISRDNAKNTVYLQMNSLKPEDTAVYYCNAQLSYHWYSPGYDYWGQGTQVTVSS”, with “low polyreactivity”.
Regarding “QVQLVESGGGLVQAGGSLRLSCAASGRTFNSTAMGWYRQAPGKERELVAAITRSGGSTYYADSVKGRFTISRDYAKNTVYLQMISQKPEDTAVNYCITTRWTQRTSFDYWGQGTQVTVSS”, the “polyreactivity (PSR sort gate)” value is on record as “low polyreactivity”.
Take “QVQLVESGGGLVQAGGSLRLSCAASGRTFNSYAMGWYRQAPGKERELVAAISWNTGSTYYADSVKGRFTISRDNAKNTVYLQMNSLKPEDTAVYYCAAEGELYTAFGTLSFDYWGHGTQVTVSS”: the “polyreactivity (PSR sort gate)” value is on record as “high polyreactivity”.
Take “QVQLVESGGGLVQAGGSLRLSCAASGRTFNSYAMGWYRQSPGKERELVADITSSGGSTYYADSVKGRFTISRDNAKNTVFLQMNSLIPEDTALYYCAADGYTRLPTYLRVNHRSLDYWGQGTQVTVSS”: the “polyreactivity (PSR sort gate)” value is “low polyreactivity”.
Turning to “QVQLVESGGGLVQAGGSLRLSCAASGRTFNTNAMGWYRQAPGKERELVAAISGGGSTYADSVKGRFTISRDNAKNTVYLQMNSLKPEDTAVYYCKAYPPYLYATYDYWGQGTQVTVSS”, the “polyreactivity (PSR sort gate)” value is recorded as “low polyreactivity”.
Take “QVQLVESGGGLVQAGGSLRLSCAASGRTFNVYAMGWYRQAPGKERELVAAISKSGGSTYYADSVKGRFTISRDNAKNTVYLQMTSLKPEDTAVYYCNRYRFVRQVRGGGLPYDYWGQGTQVTVSS”: the “polyreactivity (PSR sort gate)” value is “high polyreactivity”.

The values are drawn from the nanobody polyreactivity screen of Harvey et al. (2022).
